T1: RSV F protein of subtype A comprising a polypeptide of SEQ ID NO: 1 and a polypeptide of SEQ ID NO: 2 (RSV subtype A, UniProt P11209 137-513; P03420 26-109)
T1 construct: Stabilized prefusion F trimer made of three F2-F1 heterodimers; Produced recombinantly in CHO cells; also called RSV A; RSVA
T1 chain 1: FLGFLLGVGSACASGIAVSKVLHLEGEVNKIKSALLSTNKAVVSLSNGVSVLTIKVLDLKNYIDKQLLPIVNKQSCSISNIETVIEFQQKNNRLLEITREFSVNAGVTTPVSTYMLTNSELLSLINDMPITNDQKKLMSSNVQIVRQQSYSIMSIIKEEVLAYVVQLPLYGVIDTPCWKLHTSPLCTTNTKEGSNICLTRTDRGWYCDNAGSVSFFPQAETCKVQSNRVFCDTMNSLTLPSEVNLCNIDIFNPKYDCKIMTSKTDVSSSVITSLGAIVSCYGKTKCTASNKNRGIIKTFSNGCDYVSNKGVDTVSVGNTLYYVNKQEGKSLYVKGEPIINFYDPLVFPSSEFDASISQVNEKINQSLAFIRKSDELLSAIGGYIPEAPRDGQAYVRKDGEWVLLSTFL
T1 chain 2: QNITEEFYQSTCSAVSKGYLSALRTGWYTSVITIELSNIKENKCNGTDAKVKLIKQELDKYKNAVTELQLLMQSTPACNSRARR

B1: AM14 (trimeric prefusion specific antibody of the AM14 ELISA) (antibody, V domains shown)
VH: EVQLVESGGGVVQPGRSLRLSCAASGFSFSHYAMHWVRQAPGKGLEWVAVISYDGENTYYADSVKGRFSISRDNSKNTVSLQMNSLRPEDTALYYCARDRIVDDYYYYGMDVWGQGATVTVSS
VL: DIQMTQSPSSLSASVGDRVTITCQASQDIKKYLNWYHQKPGKVPELLMHDASNLETGVPSRFSGRGSGTDFTLTISSLQPEDIGTYYCQQYDNLPPLTFGGGTKVEIKR
notes: Antibody as used in the AM14 ELISA, detected with an HRP-labeled secondary antibody

How the values were obtained:
[1] = molecular target: RSV A + RSV B bivalent composition (RSV subtype A; RSV subtype B); experiment: AM14 Fab titration by SEC; High-Slow 1 cycle; T0
[2] = molecular target: RSV A + RSV B bivalent composition (RSV subtype A; RSV subtype B); experiment: AM14 Fab titration by SEC; Target cycle; 3 M 40°C
[3] = molecular target: RSV A + RSV B bivalent composition (RSV subtype A; RSV subtype B); experiment: AM14 Fab titration by SEC; Low-Fast cycle; 8 M 40°C
[4] = molecular target: RSV A + RSV B bivalent composition (RSV subtype A; RSV subtype B); experiment: AM14 Fab titration by SEC; High-Slow 1 cycle; 8 M 40°C
[5] = molecular target: RSV A + RSV B bivalent composition (RSV subtype A; RSV subtype B); experiment: AM14 Fab titration by SEC; High-Slow 2 cycle; 8 M 40°C
[6] = molecular target: RSV A + RSV B bivalent composition (RSV subtype A; RSV subtype B); experiment: AM14 Fab titration by SEC; Target cycle; 1 M 25°C (second value)
[7] = molecular target: RSV A + RSV B bivalent composition (RSV subtype A; RSV subtype B); experiment: AM14 Fab titration by SEC; Low-Fast cycle; 1 M 25°C (second value)
[8] = molecular target: RSV A + RSV B bivalent composition (RSV subtype A; RSV subtype B); experiment: AM14 Fab titration by SEC; composition of Table 14; Annealing Ramp Aggressive cycle
[9] = molecular target: RSV A + RSV B bivalent composition (RSV subtype A; RSV subtype B); experiment: AM14 Fab titration by SEC; composition of Table 14; Drying Temp + Ramp Aggressive cycle
[10] = molecular target: T1, RSV F protein of subtype A comprising a …; experiment: AM14 ELISA; F3 (pH 8, 0 mM NaCl, 9% sucrose); T0
[11] = molecular target: T1, RSV F protein of subtype A comprising a …; experiment: AM14 ELISA; F1 (pH 8, 100 mM NaCl, 0% sucrose); 1 wk 5°C
[12] = molecular target: T1, RSV F protein of subtype A comprising a …; experiment: AM14 ELISA; F16 (pH 6, 0 mM NaCl, 0% sucrose); 1 wk 25°C
[13] = molecular target: T1, RSV F protein of subtype A comprising a …; experiment: AM14 ELISA; F7 (pH 6, 100 mM NaCl, 0% sucrose); 1 wk 5°C
[14] = molecular target: T1, RSV F protein of subtype A comprising a …; experiment: AM14 ELISA; F1 (pH 8, 100 mM NaCl, 0% sucrose); 1 wk 25°C
[15] = molecular target: T1, RSV F protein of subtype A comprising a …; experiment: AM14 ELISA; F1 (pH 8, 100 mM NaCl, 0% sucrose); 2 wk 25°C
[16] = molecular target: T1, RSV F protein of subtype A comprising a …; experiment: AM14 ELISA; F14 (pH 7, 50 mM NaCl, 4.5% sucrose); 1 wk 25°C
[17] = molecular target: T1, RSV F protein of subtype A comprising a …; experiment: AM14 ELISA; F17 (pH 7, 50 mM NaCl, 4.5% trehalose); 2 wk 5°C
[18] = molecular target: T1, RSV F protein of subtype A comprising a …; experiment: AM14 ELISA; F18 (pH 7, 50 mM NaCl, 3% sucrose + 3% mannitol); 1 wk 25°C

Row | Molecule | Prefusion Content (%) [1] [%] | Prefusion Content (%) [2] [%] | Prefusion Content (%) [3] [%] | Prefusion Content (%) [4] [%] | Prefusion Content (%) [5] [%] | Prefusion Content (%) [6] [%] | Prefusion Content (%) [7] [%] | Prefusion Content (%) [8] [%] | Prefusion Content (%) [9] [%] | AM14 prefusion content (%), relative to standard [10] [%] | AM14 prefusion content (%), relative to standard [11] [%] | AM14 prefusion content (%), relative to standard [12] [%] | AM14 prefusion content (%), relative to standard [13] [%] | AM14 prefusion content (%), relative to standard [14] [%] | AM14 prefusion content (%), relative to standard [15] [%] | AM14 prefusion content (%), relative to standard [16] [%] | AM14 prefusion content (%), relative to standard [17] [%] | AM14 prefusion content (%), relative to standard [18] [%]
1 | AM14 Fab | 64 | 72 | 63 | 53 | 61 | 65 | 71 | 81 | 67 | – | – | – | – | – | – | – | – | –
2 | B1 | – | – | – | – | – | – | – | – | – | 95 | 96 | 87 | 61 | 112 | 93 | 77 | 64 | 83
